For assay [1], the target named is recombinant human pancreatic triglyceride lipase (human) (UniProt P16233). Kind of assay: co-sedimentation.
For assay [2], the target named is T1, recombinant human pancreatic triglyceride lipase (human, UniProt P16233 17-465).
T1 sequence: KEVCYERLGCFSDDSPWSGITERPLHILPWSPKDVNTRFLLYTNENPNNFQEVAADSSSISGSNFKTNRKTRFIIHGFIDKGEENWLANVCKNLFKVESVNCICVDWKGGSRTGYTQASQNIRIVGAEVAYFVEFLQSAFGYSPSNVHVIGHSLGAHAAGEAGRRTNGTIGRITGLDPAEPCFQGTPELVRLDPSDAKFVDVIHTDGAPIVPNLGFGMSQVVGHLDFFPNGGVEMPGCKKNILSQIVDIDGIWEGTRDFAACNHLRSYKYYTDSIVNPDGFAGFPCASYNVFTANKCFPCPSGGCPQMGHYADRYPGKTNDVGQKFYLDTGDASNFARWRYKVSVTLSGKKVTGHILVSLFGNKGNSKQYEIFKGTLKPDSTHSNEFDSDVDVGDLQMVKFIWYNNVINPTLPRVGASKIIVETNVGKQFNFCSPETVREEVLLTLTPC
Kind of assay: co-sedimentation.

As to F84A human colipase (natural protein), the apparent Kd (colipase at half-maximal absorption of PTL to tributyrin emulsion) in assay [1] was 0.108 µM.
On the same count and under the same terms, to L16A human colipase (natural protein) belongs 0.0257 µM.
As for I79A human colipase (natural protein), in assay [1], the apparent Kd (colipase at half-maximal absorption of PTL to tributyrin emulsion) was 0.036 µM.
With Y55A human colipase (natural protein), the apparent Kd (colipase at half-maximal absorption of PTL to tributyrin emulsion) in assay [1] is 0.0786 µM.

B1: wild-type human colipase (natural protein, UniProt P04118 18-112, looked up)
chain: APGPRGIIINLENGELCMNSAQCKSNCCQHSSALGLARCTSMASENSECSVKTLYGIYYKCPCERGLTCEGDKTIVGSITNTNFGICHDAGRSKQ
Consider B1, for which the “apparent Kd (colipase at half-maximal absorption of PTL to tributyrin emulsion)” value in assay [2] worked out at 0.0228 µM.

Source of the values: PMC3642234 (Biochimica et biophysica acta, 2013).
